Where no end group is shown, it is not given here. eCPX = enhanced circularly permuted OmpX display scaffold; linker = not defined here
What was measured:
[1] = biological target: T1, Mcl-1 (biotinylated pro-survival Bcl-2 family protein) (UniProt Q07820 171-327, biotinylated (co-expressed E. coli biotin ligase BirA)); test: cell surface display FACS titration; apparent Kd
T1 chain: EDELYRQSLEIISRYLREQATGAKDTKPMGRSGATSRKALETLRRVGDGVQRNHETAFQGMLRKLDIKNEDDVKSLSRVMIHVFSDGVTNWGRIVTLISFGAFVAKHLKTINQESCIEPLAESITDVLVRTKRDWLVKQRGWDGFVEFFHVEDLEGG

[2] = biological target: T2, A1 (biotinylated pro-survival Bcl-2 family protein) (UniProt Q16548 1-152, biotinylated (co-expressed E. coli biotin ligase BirA)); test: flow cytometry, bacterial surface display (eCPX); apparent Kd; FIG. 7AH
T2 chain: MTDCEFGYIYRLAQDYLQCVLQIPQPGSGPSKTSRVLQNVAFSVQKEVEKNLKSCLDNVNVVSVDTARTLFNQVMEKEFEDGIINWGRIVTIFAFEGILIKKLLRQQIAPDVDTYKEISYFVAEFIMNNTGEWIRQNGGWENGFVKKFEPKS

[3] = biological target: Bcl-2 (biotinylated pro-survival Bcl-2 family protein) (UniProt P10415 1-217, biotinylated (co-expressed E. coli biotin ligase BirA)); test: cell surface display FACS titration; apparent Kd
Sequence of Bcl-2 (biotinylated pro-survival Bcl-2 family protein) (P10415 1-217): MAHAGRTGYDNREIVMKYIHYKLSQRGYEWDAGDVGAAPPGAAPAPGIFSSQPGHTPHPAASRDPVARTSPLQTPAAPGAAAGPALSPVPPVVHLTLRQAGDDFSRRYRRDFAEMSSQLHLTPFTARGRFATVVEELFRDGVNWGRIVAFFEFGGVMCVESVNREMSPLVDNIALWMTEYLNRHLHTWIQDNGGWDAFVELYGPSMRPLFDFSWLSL

B1: Bim BH3 14-mer E151T displayed on eCPX (peptide)
peptide: WIAQTLRRIGDEFN
B1 showed a Kd [1] of 33.2 nM.

B2: Bim BH3 14-mer variant X2-8 displayed on eCPX (peptide)
peptide: WLAQLLRRYGDEFN
modifications: also: displayed as fusion to eCPX scaffold (letters not given here)
With B2 the Kd [2] was 5.8 nM.

B3: Bim BH3 14-mer E151L displayed on eCPX (peptide)
peptide: WIAQLLRRIGDEFN
B3 showed a Kd [1] of 17.8 nM.

B4: Bim BH3 14-mer variant M2-2 displayed on eCPX (peptide)
peptide: WVAQLLRRIGDEVN-{linker-eCPX}
modifications: reading uncertain; also: printed as Trp-Val-Ala-Gln-Leu-Leu-Arg-Arg-Ile-Gly-Asp-Glu-Val-Asn
Work on B4 yielded a Kd [3] of over 10000 nM.
